In patent publication US20220144940A1 (VIELA BIO, published 2022):
Where “and” joins values, the source holds several entries; their conditions need not be identical. Identical values can stand only once.

How the values were obtained:
cynomolgus ILT7 [1] = target: T1, cynomolgus ILT7 (cynomolgus, UniProt P59901 24-499 (human entry)); experiment: cell-based or functional assay
[2] = target: T2, HA-tagged human ILT7 on CT-550 cells (human, UniProt P59901 24-499); experiment: cell-based or functional assay
T2 sequence (P59901 24-499): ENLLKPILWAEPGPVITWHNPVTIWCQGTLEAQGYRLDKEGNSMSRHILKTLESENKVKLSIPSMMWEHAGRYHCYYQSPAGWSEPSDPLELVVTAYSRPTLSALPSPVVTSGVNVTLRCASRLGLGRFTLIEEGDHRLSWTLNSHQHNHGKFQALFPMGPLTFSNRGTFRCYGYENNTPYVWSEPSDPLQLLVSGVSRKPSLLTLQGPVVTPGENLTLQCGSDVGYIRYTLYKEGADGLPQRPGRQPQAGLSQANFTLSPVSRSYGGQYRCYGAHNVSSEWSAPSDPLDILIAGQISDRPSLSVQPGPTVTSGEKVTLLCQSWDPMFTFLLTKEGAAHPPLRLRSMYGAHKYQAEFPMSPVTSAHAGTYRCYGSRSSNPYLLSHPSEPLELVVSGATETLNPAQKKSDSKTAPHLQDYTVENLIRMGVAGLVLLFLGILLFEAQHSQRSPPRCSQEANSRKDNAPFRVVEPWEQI

cynomolgus ILT7 [3] = target: T1, cynomolgus ILT7; experiment: flow cytometry on CynoILT7 CT-125 cells
Experimental: (§1) Binding of anti-ILT7 variants and isotype controls on human and cynomolgus ILT7 was assessed by flow cytometry analysis using CT-550 and cynoILT7 CT-125 cells respectively. CT-125 cells were used as control. Cells were resuspended in Blocking Buffer (PBS supplemented with 10% FBS) at a concentration of 5 million cells per mL and transferred into a round-bottom 96-well plates (BD Falcon™ Clear Microtest Plate, BD Biosciences) at 100 μL per well. Anti-ILT7 variants and control antibodies were added onto the cells for 30 min at 4° C. on a plate shaker. Cells were washed three times with PBS and resuspended in Blocking Buffer (100 μL/well). Human IgG binding on cell surface was detected using a secondary anti-human IgG antibody conjugated to DyLight 649 (1 in 1000 dilution). Cells were incubated in the dark for 30 min at 4° C. on a plate shaker. Cells were washed three times with PBS and surface fluorescence was acquired using LSRII Flow Cytometry System and FACSDiva Software (both from BD Biosciences).
In order to determine the binding EC₅₀ of the variants on cells expressing cynomolgus ILT7, the antibodies were screened for binding on CynoILT7 CT-125 cells by flow cytometry. […] The graph in FIG. 3 represents the mean results from two independent experiments, and the table in FIG. 3 show the average EC₅₀.

[4] = target: T2, HA-tagged human ILT7 on CT-550 cells; experiment: flow cytometry on CT-550 cells
Experimental: as §1
In order to determine the binding EC50 of ILT70019, ILT70028, ILT70052, ILT70076, ILT70080, ILT70083, ILT70089, ILT70100, ILT70137, ILT70142 and ILT70144 on cells expressing human ILT7, the candidates were screened for binding on CT-550 cells by flow cytometry. ILT70080 (EC₅₀=0.28 nM), ILT70083 (EC₅₀=0.37 nM), ILT70137 (EC₅₀=0.41 nM), ILT70144, ILT70142, ILT70052, and ILT70100 bound to human ILT7-expressing cells. […] The anti-ILT7 antibodies 7C7 (7C7 is described above in Example 1) and SBI33 (SBI33 refers to the anti-ILT7 antibody ILT7#33 provided in U.S. Published Application No. 2009/0280128) were used as positive controls.

[5] = target: T2, HA-tagged human ILT7 on CT-550 cells; experiment: flow cytometry on human ILT7-expressing cells, left panel 'Human ILT7', table 'Ec50 (nM)'
Experimental: as §1

cynomolgus ILT7 [6] = target: T1, cynomolgus ILT7; experiment: flow cytometry on cynomolgus ILT7-expressing cells, bottom panel, table 'Ec50 (pM)'
Experimental: as §1

[7] = target: T2, HA-tagged human ILT7 on CT-550 cells; experiment: flow cytometry (MFI) on human ILT7-expressing cells, left panel 'Human ILT7', table 'Ec50 (pM) Mean ± SD n=3'
cynomolgus ILT7 [8] = target: T1, cynomolgus ILT7; experiment: flow cytometry (MFI) on cynomolgus ILT7-expressing cells, right panel 'Cynomolgus ILT7', table 'Ec50 (pM) Mean ± SD n=3'
cynomolgus ILT7 [9] = target: T1, cynomolgus ILT7; experiment: flow cytometry on cynomolgus ILT7-expressing cells, right panel 'Cyno ILT7', table 'Ec50 (nM)'
Experimental: as §1

[10] = target: T2, HA-tagged human ILT7 on CT-550 cells; experiment: flow cytometry (MFI) on human ILT7-expressing cells
Experimental: as §1
Anfucosylated version of ILT70080.6 was generated. […] The tables in FIG. 15 provide the mean results of three independent binding experiments measuring mean fluorescence intensity (MFI).

cynomolgus ILT7 [11] = target: T1, cynomolgus ILT7; experiment: flow cytometry (MFI) on cynomolgus ILT7-expressing cells
Experimental: as §1

[12] = target: T3, recombinant human ILT7 protein (human, UniProt P59901 24-446, limits assumed); experiment: BIAcore SPR, IgG captured on chip, ILT7 protein as analyte, 1:1 model
T3 construct: Soluble recombinant protein used in ProteOn and BIAcore SPR; also called rILT7; Soluble Recombinant Human ILT7
T3 sequence (P59901 24-446 limits assumed): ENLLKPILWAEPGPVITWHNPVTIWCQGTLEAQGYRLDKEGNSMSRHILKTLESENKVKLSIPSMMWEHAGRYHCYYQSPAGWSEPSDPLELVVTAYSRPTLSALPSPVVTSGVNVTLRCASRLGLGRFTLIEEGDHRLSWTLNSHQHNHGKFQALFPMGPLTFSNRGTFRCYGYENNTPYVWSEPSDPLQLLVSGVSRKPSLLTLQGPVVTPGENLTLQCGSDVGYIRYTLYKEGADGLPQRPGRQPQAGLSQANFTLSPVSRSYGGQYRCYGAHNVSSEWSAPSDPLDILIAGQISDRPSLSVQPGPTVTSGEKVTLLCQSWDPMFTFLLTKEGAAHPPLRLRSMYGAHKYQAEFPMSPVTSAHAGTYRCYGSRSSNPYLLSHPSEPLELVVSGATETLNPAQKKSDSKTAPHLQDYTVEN
Experimental: (§2) BIAcore (surface plasmon resonance) was used to measure the kinetic rate (kₒₙ, koff) constants for the binding of afucosylated IgG₁ ILT70137 to human ILT7 protein using an IgG-capture assay format. The binding of each concentration of a two-fold dilution series of the ILT7 protein was recorded after first capturing IgG onto the sensor chip surface, followed by either the ILT7 protein or instrument buffer. In between each pair of injections, the IgG capture surface was regenerated. Individual association and dissociation rate constants were then calculated from the resulting binding curves using the Biaevaluation software available through the vendor's software employing a 1:1 fitting model, which included a term to correct for mass transport limited binding, should it be detected. […] The individual errors for kₒₙ and koff were low, and the overall fit to the data was good as judged by Chi2 values of ˜1% of the calculated Rₘₐₓ (maximum response).

human ILT7 [13] = target: T4, human ILT7 (human, UniProt P59901 24-499); experiment: cell-based or functional assay
T4 sequence (P59901 24-499): as the sequence (P59901 24-499) above

cynomolgus ILT7 [14] = target: T1, cynomolgus ILT7; experiment: flow cytometry (MFI) on cell line stably expressing cynomolgus monkey ILT7
Experimental: (§3) Binding of afucosylated ILT70137 to ILT7 was determined using cell lines stably expressing human or cynomolgus monkey ILT7. The mean fluorescence intensity of cell-bound antibodies was assessed by flow cytometry. Cells were incubated with increasing concentrations of test antibody ranging from 0.004 to 333.3 nM for 30 minutes at 4° C. After incubation, cells were washed with cold PBS and incubated for 30 minutes at 4° C. with an anti-human-Alexa Fluor 647 antibody. Fluorescent intensity was then determined by FACS and EC₅₀ values were calculated using a non-linear fit equation in GraphPad Prism 6 software.

[15] = target: T3, recombinant human ILT7 protein; experiment: BIAcore SPR, IgG captured on chip, ILT7 protein as analyte, koff/kon
Experimental: as §2

human ILT7 [16] = target: T4, human ILT7; experiment: flow cytometry (MFI) on cell line stably expressing human ILT7
Experimental: as §3

[17] = target: T3, recombinant human ILT7 protein; experiment: SPR on ProteOn

T1 sequence (P59901 other isoform, or with tags, fused parts or gaps limits assumed): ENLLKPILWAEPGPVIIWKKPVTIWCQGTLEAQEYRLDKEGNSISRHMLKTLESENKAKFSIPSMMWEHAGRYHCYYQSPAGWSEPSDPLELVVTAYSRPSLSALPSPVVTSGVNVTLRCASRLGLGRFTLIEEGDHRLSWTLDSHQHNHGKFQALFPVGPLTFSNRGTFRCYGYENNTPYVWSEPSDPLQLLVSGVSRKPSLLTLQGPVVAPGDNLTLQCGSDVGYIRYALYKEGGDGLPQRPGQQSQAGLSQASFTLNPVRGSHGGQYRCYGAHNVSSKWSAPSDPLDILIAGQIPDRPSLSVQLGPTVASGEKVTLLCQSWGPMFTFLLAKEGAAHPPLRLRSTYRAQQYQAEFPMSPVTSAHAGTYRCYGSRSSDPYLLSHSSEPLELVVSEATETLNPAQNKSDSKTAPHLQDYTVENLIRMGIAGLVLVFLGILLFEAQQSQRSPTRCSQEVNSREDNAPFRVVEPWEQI

Row | Binder | ADCC EC50 (cynomolgus ILT7 [1]) | ADCC EC50 [2] | EC50 (cynomolgus ILT7 [3]) [nM] | EC50 [4] | EC50 [5] [nM] | also measured
1 | ILT70137 (antibody, V domains shown) VH: QVQLQQSGAEVKKPGASVKVSCKASGYTFTSYGISWVRQAPGQGLEWMGWISAYNGNTNYAQKLQGRVTMTTDTSTSTAYMELRSLRSDDTAVYYCARNGLWGWDSDAFDIWGRGTLVTVSS VL: QSALTQPASVSGSPGQSITISCTGTSSDVGGYNYVSWYQQHPGKAPKLMIYDVSNRPSGVSNRFSGSKSGNTASLTISGLQAEDEADYYCSSYTSSSTVVFGGGTKVTVL | 15 pM | 0.044 nM | 1.4 | 0.41 nM | – | –
2 | ILT70083 (antibody, V domains shown) VH: EVQLLESGGGLVQPGGSLRLSCAASGFTFSSYAMSWVRQAPGKGLEWVSAISGSGGSTYYADSVKGWFTISRDNSKNTLYLQMNSLRAEDTAVYYCARRTYYYDSDGHSDVFDIWGRGTLVTVSS VL: QSVVTQPPSVSAAPGQKVTISCSGSASNIGSNFVSWYQQLPGRAPKLLIYDNDKRDLGIPDRFSASISSTSAALAITGLQTEDEADYYCGTWDTSLTVGVFGGGTKLTVL | 433 pM and 360 pM | 0.089 nM and 0.094 nM | 1.37 | 0.37 nM and 0.464 nM | 0.25 | EC50 (cynomolgus ILT7 [6]): 2.65 nM; EC50 [7]: 0.308 nM; EC50 (cynomolgus ILT7 [8]): 1.28 nM
3 | afucosylated ILT70080 (antibody, V domains shown, afucosylated: lacks the α-1,6 fucose moiety on the N-glycan at Asn-297 of the heavy chain, also called Afucosylated variant ITL70080) VH: QVQLVQSGAEVKAPGTSVKVSCKASGDSFRNYAVSWVRQAPGQGLEWMGAMMPSFGTREHSQQFNGRVTLSADESTSTAYLELSSLRYDDTAVYYCAGSRDYNAYHFWTGPPDFWGRGTLVTVSS VL: SYELTQPPSVSVAPGKTAKISCGGDSVGSTSVHWYQQKPGQAPVMVMFYNSDRPSGIPERFSGSISGNTATLTISRVEAGDEADYYCQVWDTSSDHPEFGGGTKLTVL | 0.51 pM | 0.001 nM | – | – | 0.34 | EC50 (cynomolgus ILT7 [9]): 0.4 nM
4 | afucosylated ILT70080.6 (antibody, V domains shown, afucosylated, also called afucosylated ILT0080.6) VH: QVQLVQSGAEVKKPGSSVKVSCKASGDSFRNYAVSWVRQAPGQGLEWMGAMMPSFGTREHSQQFQGRVTLTADESTSTAYMELSSLRSEDTAVYYCAGSRDYNAYHFWTGPPDFWGRGTLVTVSS VL: SYVLTQPPSVSVAPGKTARITCGGDSVGSTSVHWYQQKPGQAPVLVIYYNSDRPSGIPERFSGSNSGNTATLTISRVEAGDEADYYCQVWDTSSDHPEFGGGTKLTVL | 0.44 pM | 0.00112 nM | – | – | – | EC50 [10]: 0.152 nM; EC50 (cynomolgus ILT7 [11]): 0.366 nM
5 | afucosylated IgG1 ILT70137 (antibody, V domains shown, afucosylated (made as in Example 7: lacks the α-1,6 fucose moiety on the N-glycan at Asn-297 of the heavy chain), also called afucosylated ILT70137; Afuc IgG1 ILT70137) VH: QVQLQQSGAEVKKPGASVKVSCKASGYTFTSYGISWVRQAPGQGLEWMGWISAYNGNTNYAQKLQGRVTMTTDTSTSTAYMELRSLRSDDTAVYYCARNGLWGWDSDAFDIWGRGTLVTVSS VL: QSALTQPASVSGSPGQSITISCTGTSSDVGGYNYVSWYQQHPGKAPKLMIYDVSNRPSGVSNRFSGSKSGNTASLTISGLQAEDEADYYCSSYTSSSTVVFGGGTKVTVL | 1.89 pM | – | – | – | – | koff [12]: 0.0318 s⁻¹; kon [12]: 186000 M⁻¹ s⁻¹; ADCC EC50 (human ILT7 [13]): 4.19 pM; EC50 (cynomolgus ILT7 [14]): 2.15 nM; Kd [15]: 171 nM; EC50 (human ILT7 [16]): 0.303 nM
6 | 10D10 (antibody, V domains shown, Humanized variant of SBI28 from a framework-shuffled Fab library) VH: EVQLVESGGGVVQPGRSLRLSCAASGFTFSTYPIEWVRQAPGQGLEWIGNFHLYNDDTKYNEKFKGRVTMTTDTSTSTVYMELSSLRSEDTAVYYCTRGDDYGMDYWGQGTLVTVSS VL: NIQMTQSPSSLSASVGDRVTITCKASQNVRTAVAWYQQKPGKAPKRLIYLASNRHTGVPSRFSGSGSGTDFTLTISSLQSEDFATYYCLQHWNYPFTFGPGTKLEIK | – | – | – | – | – | fold lower affinity than SBI28ch [17]: 3 fold
